Substitutions are numbered along the chain they refer to.
T1: hIL-3 receptor (human, UniProt P26951)
T1 sequence: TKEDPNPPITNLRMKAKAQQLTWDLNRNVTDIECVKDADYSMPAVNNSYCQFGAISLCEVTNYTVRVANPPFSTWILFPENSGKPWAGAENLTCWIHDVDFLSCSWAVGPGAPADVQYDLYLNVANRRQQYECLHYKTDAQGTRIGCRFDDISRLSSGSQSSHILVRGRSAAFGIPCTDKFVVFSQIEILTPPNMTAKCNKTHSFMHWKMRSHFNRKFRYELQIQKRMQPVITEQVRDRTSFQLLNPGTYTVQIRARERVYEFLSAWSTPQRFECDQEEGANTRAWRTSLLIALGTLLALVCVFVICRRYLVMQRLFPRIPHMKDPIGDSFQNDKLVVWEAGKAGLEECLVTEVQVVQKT

B1: pMON13298 polypeptide (ligand)
chain: MANCSNMIDEIITHLKQPPLPLLDFNNLNGEDQDILMENNLRRPNLEAFNRAVKSLQNASGIEAILRNLQPCLPSATAAPSRHPIIIKAGDWQEFREKLTFYLVTLEQAQEQQ
B2: pMON13300 polypeptide (ligand)
chain: B1 chain with Q70V, I86T, T105S, Q108H
B3: pMON13299 polypeptide (ligand)
chain: B1 chain with Q70V, I86T
B4: pMON13301 polypeptide (ligand)
chain: MANCSIMIDEIIHHLKRPPAPLLDPNNLNAEDVDILMERNLRLPNLESFVRAVKNLENASAIESILKNLLPCLPLATAAPTRHPIHIKDGDWNEFRRKLTFYLKTLENAQAQQ
B5: pMON13302 polypeptide (ligand)
chain: B4 chain with A20N, A30S, V33M, L43T, E47L, S48A, N55H
B6: pMON13303 polypeptide (ligand)
chain: B4 chain with R17V, P25S, A30S, V33M, E47L, S48A
B7: pMON13285 polypeptide (ligand)
chain: MANCSNMIDEIITHLKQPPLPLLDFNNLNDEDMSILMDNNLRRPNLEAFNRAVKSLQNASAIESILKNLLPCLPLATAAPTRHPIHIKDGDWNEFRRKLTFYLKTLENAQAQQ
B8: pMON13330 polypeptide (ligand)
chain: B7 chain with H83R, H86I, K88R, K104W
B9: pMON13286 polypeptide (ligand)
chain: B7 chain with D38E
B10: pMON13329 polypeptide (ligand)
chain: B7 chain with D38E, H86I, K88R, K104W
B11: pMON13325 polypeptide (ligand)
chain: B7 chain with D38E, K104W
B12: pMON13326 polypeptide (ligand)
chain: B7 chain with K104W
B13: pMON13364 polypeptide (ligand)
chain: NCSIMIDEIIHHLKRPPNPLLDPNNLNSEDMDILMERNLRTPNLLAFVRAVKHLENASAIESILKNLLPCLPLATAAPTRHPIHIKDGDWNEFRRKLTFYLKTLENAQAQQ
B14: pMON13375 polypeptide (ligand)
chain: MANCSIMIDEIIHHLKRPPAPLLDPNNLNAEDVDILMERNLRLPNLESFVRAVKNLENASGIEAILRNLQPCLPSATAAPSRHPIIIKAGDWQEFREKLTFYLVTLE
B15: pMON13376 polypeptide (ligand)
chain: B14 chain with A2D, I11A, T100Q
B16: pMON13287 polypeptide (ligand)
chain: MANCSIMIDEIIHHLKRPPAPLLDPNNLNAEDVDILMERNLRLPNLESFVRAVKNLENASGIEAILRNLQPCLPSATAAPSRHPIIIKAGDWQEFREKLTFYLVTLEQAQEQQ
B17: pMON13288 polypeptide (ligand)
chain: B16 chain with A20N, A30S, V33M, L43T, E47L, S48A, N55H
B18: pMON13292 polypeptide (ligand)
chain: B16 chain with R17V, P25S, A30S, V33M, E47L, S48A, Q70V, I86T
B19: pMON13379 polypeptide (ligand)
chain: B16 chain with D34S, E38D, T100Q
B20: pMON13313 polypeptide (ligand)
chain: B16 chain with Q70V, I86T, T105S, Q108H
B21: pMON13381 polypeptide (ligand)
chain: B16 chain with Q70W
B22: pMON13312 polypeptide (ligand)
chain: B16 chain with A20N, A30S, V33M, L43T, E47L, S48A, N55H, Q70V, I86T
B23: pMON13290 polypeptide (ligand)
chain: B16 chain with Q70V, I86T
B24: pMON13392 polypeptide (ligand)
chain: B16 chain with A30D
B25: pMON13384 polypeptide (ligand)
chain: B16 chain with T100Q
B26: pMON13389 polypeptide (ligand)
chain: B16 chain with A30D, V33M
B27: pMON13370 polypeptide (ligand)
chain: B16 chain with V33M, D34S, E38D
B28: pMON13368 polypeptide (ligand)
chain: B16 chain with I11A, R17V, P25S, A30S, V33M, E47L, S48A
B29: pMON13374 polypeptide (ligand)
chain: B16 chain with A30S, V33M, D34S, E38D
B30: pMON13289 polypeptide (ligand)
chain: B16 chain with R17V, P25S, A30S, V33M, E47L, S48A
B31: pMON13380 polypeptide (ligand)
chain: B16 chain with I11A, R17V, P25S, A30S, V33M, E47L, S48A, T100Q
B32: pMON13367 polypeptide (ligand)
chain: B16 chain with D34S, E38D
B33: pMON13369 polypeptide (ligand)
chain: B16 chain with A30D, D34S, E38D
B34: pMON13295 polypeptide (ligand)
chain: B16 chain with R17V, P25S, A30S, V33M, E47L, S48A, Q70V, I86T, T105S, Q108H
B35: pMON13382 polypeptide (ligand)
chain: B16 chain with T100Q, V104W
B36: pMON13387 polypeptide (ligand)
chain: B16 chain with E38D
B37: pMON13366 polypeptide (ligand)
chain: B16 chain with A30N, D34S, E38D
B38: pMON13396 polypeptide (ligand)
chain: B16 chain with K88R, A89M
B39: pMON13393 polypeptide (ligand)
chain: B16 chain with I11A, L22S, A30D, V33M, D34S
B40: pMON13391 polypeptide (ligand)
chain: B16 chain with L22S
B41: pMON13475 polypeptide (ligand)
chain: B16 chain with I11A, A30D, D34S, E38D
B42: pMON13388 polypeptide (ligand)
chain: B16 chain with E38D, P44S
B43: pMON13385 polypeptide (ligand)
chain: B16 chain with R17V, A20R, L22S
B44: pMON13373 polypeptide (ligand)
chain: B16 chain with A30D, V33M, D34S, E38D
B45: pMON13294 polypeptide (ligand)
chain: MANCSIMIDEIIHHLKRPPNPLLDPNNLNSEDMDILMERNLRTPNLLAFVRAVKHLENASGIEAILRNLVPCLPSATAAPSRHPITIKAGDWQEFREKLTFYLVSLEHAQEQQ

Molecular target: T1, hIL-3 receptor
Assay: cell-based or functional assay

Row | Binder | Relative Biological Activity (AML 193 proliferation)
1 | B1 | 3 EC50 (1-133)hIL-3 / EC50 mutant
2 | B2 | 3 EC50 (1-133)hIL-3 / EC50 mutant
3 | B3 | 2 EC50 (1-133)hIL-3 / EC50 mutant
4 | B4 | 2 EC50 (1-133)hIL-3 / EC50 mutant
5 | B5 | 1.2 EC50 (1-133)hIL-3 / EC50 mutant
6 | B6 | 0.6 EC50 (1-133)hIL-3 / EC50 mutant
7 | B7 | 32 EC50 (1-133)hIL-3 / EC50 mutant
8 | B8 | 19 EC50 (1-133)hIL-3 / EC50 mutant
9 | B9 | 8 EC50 (1-133)hIL-3 / EC50 mutant
10 | B10 | 10 EC50 (1-133)hIL-3 / EC50 mutant
11 | B11 | 8 EC50 (1-133)hIL-3 / EC50 mutant
12 | B12 | 25 EC50 (1-133)hIL-3 / EC50 mutant
13 | B13 | 13 EC50 (1-133)hIL-3 / EC50 mutant
14 | B14 | 14 EC50 (1-133)hIL-3 / EC50 mutant
15 | B15 | 0.4 EC50 (1-133)hIL-3 / EC50 mutant
16 | B16 | 26 EC50 (1-133)hIL-3 / EC50 mutant
17 | B17 | 24 EC50 (1-133)hIL-3 / EC50 mutant
18 | B18 | 6 EC50 (1-133)hIL-3 / EC50 mutant
19 | B19 | 0.9 EC50 (1-133)hIL-3 / EC50 mutant
20 | B20 | 8 EC50 (1-133)hIL-3 / EC50 mutant
21 | B21 | 10 EC50 (1-133)hIL-3 / EC50 mutant
22 | B22 | 4 EC50 (1-133)hIL-3 / EC50 mutant
23 | B23 | 20 EC50 (1-133)hIL-3 / EC50 mutant

Row | Binder | Relative Biological Activity (AML 193 proliferation)
24 | B24 | 17 EC50 (1-133)hIL-3 / EC50 mutant
25 | B25 | 0.25 EC50 (1-133)hIL-3 / EC50 mutant
26 | B26 | 10 EC50 (1-133)hIL-3 / EC50 mutant
27 | B27 | 6 EC50 (1-133)hIL-3 / EC50 mutant
28 | B28 | 1.6 EC50 (1-133)hIL-3 / EC50 mutant
29 | B29 | 6 EC50 (1-133)hIL-3 / EC50 mutant
30 | B30 | 13 EC50 (1-133)hIL-3 / EC50 mutant
31 | B31 | 0.05 EC50 (1-133)hIL-3 / EC50 mutant
32 | B32 | 36 EC50 (1-133)hIL-3 / EC50 mutant
33 | B33 | 10 EC50 (1-133)hIL-3 / EC50 mutant
34 | B34 | 3 EC50 (1-133)hIL-3 / EC50 mutant
35 | B35 | 38 EC50 (1-133)hIL-3 / EC50 mutant
36 | B36 | 32 EC50 (1-133)hIL-3 / EC50 mutant
37 | B37 | 38 EC50 (1-133)hIL-3 / EC50 mutant
38 | B38 | 20 EC50 (1-133)hIL-3 / EC50 mutant
39 | B39 | 32 EC50 (1-133)hIL-3 / EC50 mutant
40 | B40 | 30 EC50 (1-133)hIL-3 / EC50 mutant
41 | B41 | 7 EC50 (1-133)hIL-3 / EC50 mutant
42 | B42 | 23 EC50 (1-133)hIL-3 / EC50 mutant
43 | B43 | 1 EC50 (1-133)hIL-3 / EC50 mutant
44 | B44 | 12 EC50 (1-133)hIL-3 / EC50 mutant
45 | B45 | 3 EC50 (1-133)hIL-3 / EC50 mutant

Source: patent US6051217, “Therapeutic uses of interleukin-3 (IL-3) multiple mutation polypeptides” (G. D. Searle & Co., dated 2000)
